Consider 61 substances from US10064928B2, “Peptides and combination of peptides for use in immunotherapy against CLL and other cancers” (IMMATICS BIOTECHNOLOGIES GMBH, priority 2015, dated 2018).

The target in this experiment is HLA-A*02:01 (Homo sapiens, UniProt P04439, D140Y/D185E/D98H/E176V/E277Q/G131W/G231S/I119V/I121R/I166T/I218V/L300P/L318F/N151K/N90K/P208A/P217A/Q86G/Q94H/R138H/R169H/T345S). Briefly: MHC binding assay (UV-ligand exchange, beta2m ELISA). The note with it: binding of HLA-class I restricted peptides to HLA-A*02:01, β2m ELISA. The method, boiled down:
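UV-exchange pMHC monomers, 100-fold diluted → streptavidin capture 1 h 37 °C → HRP anti-β2m 2 ug/ml 1 h 37 °C → TMB, A450. Yield from HLA-A*02:01/MLA-001 monomer standard curve, 15-500 ng/ml. Only stably bound peptides keep β2m-containing complexes intact.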
Background: ELISA stands for enzyme-linked immunosorbent assay.
“293 (ALDIMIPMV; listed as Homo sapiens) [compound 293]”: the “Peptide Exchange (MHC class I binding score, peptide exchange yield)” value (“Peptide Exchange” below) was ““+++” (≥50 = +++)”. As to “294 (ALLDQLHTLL; listed as Homo sapiens) [compound 294]”, the “Peptide Exchange” value is reported as ““++++” (≥75% = ++++)”. Under “295 (ALLQKLQQL; listed as Homo sapiens) [compound 295]” stands ““+++” (≥50 = +++)”; under “296 (FIAPTGHSL; listed as Homo sapiens) [compound 296]”, ““++” (≥20% = ++)”; under “297 (FLVEPQEDTRL; listed as Homo sapiens) [compound 297]”, ““+++” (≥50 = +++)”. Under “298 (IILPVEVEV; listed as Homo sapiens) [compound 298]” stands ““+++” (≥50 = +++)”; under “299 (ILEENIPVL; listed as Homo sapiens) [compound 299]”, ““+++” (≥50 = +++)”; under “300 (ILLNPAYDVYL; listed as Homo sapiens) [compound 300]”, ““+++” (≥50 = +++)”. On to “301 (AASPIITLV; listed as Homo sapiens) [compound 301]”, for which the “Peptide Exchange” value is reported as ““+++” (≥50 = +++)”.

For “302 (ILQDLTFVHL; listed as Homo sapiens) [compound 302]”, the “Peptide Exchange” value was ““+++” (≥50 = +++)”.

In the case of “303 (ILSQPTPSL; listed as Homo sapiens) [compound 303]”, the “Peptide Exchange” value is recorded as ““+++” (≥50 = +++)”. Regarding “304 (LAIVPVNTL; listed as Homo sapiens) [compound 304]”, the “Peptide Exchange” value is listed as ““+” (≥10% = +)”. On to “305 (LLFPQIEGIKI; listed as Homo sapiens) [compound 305]”, for which the “Peptide Exchange” value is recorded as ““+++” (≥50 = +++)”. Under “306 (VVAEELENV; listed as Homo sapiens) [compound 306]” stands ““++” (≥20% = ++)”; under “308 (SLYDVSRMYV; listed as Homo sapiens) [compound 308]”, ““++++” (≥75% = ++++)”. The value for “309 (ILYGTQFVL; listed as Homo sapiens) [compound 309]” was ““+++” (≥50 = +++)”; that for “310 (LLSTLHLLV; listed as Homo sapiens) [compound 310]” was ““+++” (≥50 = +++)”. For “311 (LLVDVEPKV; listed as Homo sapiens) [compound 311]”, the “Peptide Exchange” value is recorded as ““+++” (≥50 = +++)”. Under “312 (LLYNSTDPTL; listed as Homo sapiens) [compound 312]” stands ““+++” (≥50 = +++)”; under “313 (LMADLEGLHL; listed as Homo sapiens) [compound 313]”, ““+++” (≥50 = +++)”; under “314 (LMKDCEAEV; listed as Homo sapiens) [compound 314]”, ““+++” (≥50 = +++)”. Under “315 (LVYEAPETV; listed as Homo sapiens) [compound 315]” stands ““+++” (≥50 = +++)”; under “316 (MLLEHGITL; listed as Homo sapiens) [compound 316]”, ““+++” (≥50 = +++)”; under “317 (NLLAHIWAL; listed as Homo sapiens) [compound 317]”, ““+++” (≥50 = +++)”.

As for “318 (NLQVTQPTV; listed as Homo sapiens) [compound 318]”, the “Peptide Exchange” value was ““+++” (≥50 = +++)”. In the case of “319 (QVIPQLQTV; listed as Homo sapiens) [compound 319]”, the “Peptide Exchange” value is recorded as ““+++” (≥50 = +++)”.

“321 (RLLEFELAQL; listed as Homo sapiens) [compound 321]”: the “Peptide Exchange” value is ““+++” (≥50 = +++)”. Under “324 (SLYSALQQA; listed as Homo sapiens) [compound 324]” stands ““+++” (≥50 = +++)”; under “325 (TLENGVPCV; listed as Homo sapiens) [compound 325]”, ““+++” (≥50 = +++)”; under “326 (VLAFLVHEL; listed as Homo sapiens) [compound 326]”, ““++++” (≥75% = ++++)”.

On to “327 (VLIKWFPEV; listed as Homo sapiens) [compound 327]”, for which the “Peptide Exchange” value is on record as ““++++” (≥75% = ++++)”. Take “328 (VLLPQETAEIHL; listed as Homo sapiens) [compound 328]”: the “Peptide Exchange” value was ““++++” (≥75% = ++++)”. Under “330 (VLMWEIYSL; listed as Homo sapiens) [compound 330]” stands ““+++” (≥50 = +++)”. Take “331 (VLWELAHLPTL; listed as Homo sapiens) [compound 331]”: the “Peptide Exchange” value is ““+++” (≥50 = +++)”.

Regarding “333 (VTLEFPQLIRV; listed as Homo sapiens) [compound 333]”, the “Peptide Exchange” value is ““+++” (≥50 = +++)”. The value for “334 (YLLEEKIASL; listed as Homo sapiens) [compound 334]” was ““+++” (≥50 = +++)”; that for “335 (YLYQEQYFI; listed as Homo sapiens) [compound 335]” was ““+++” (≥50 = +++)”; that for “336 (YMAVTTQEV; listed as Homo sapiens) [compound 336]” was ““++++” (≥75% = ++++)”.

For the substance “337 (YMYEKESEL; listed as Homo sapiens) [compound 337]”, the “Peptide Exchange” value is ““++” (≥20% = ++)”. Take “338 (FLDMTNWNL; listed as Homo sapiens) [compound 338]”: the “Peptide Exchange” value is given as ““++++” (≥75% = ++++)”.

Take “339 (GLWGTVVNI; listed as Homo sapiens) [compound 339]”: the “Peptide Exchange” value is on record as ““+++” (≥50 = +++)”. Take “340 (KLLEEICNL; listed as Homo sapiens) [compound 340]”: the “Peptide Exchange” value is recorded as ““++++” (≥75% = ++++)”.

As for “341 (LLAELPASVHA; listed as Homo sapiens) [compound 341]”, the “Peptide Exchange” value was ““+++” (≥50 = +++)”.

In the case of “342 (SLITPLQAV; listed as Homo sapiens) [compound 342]”, the “Peptide Exchange” value is ““+++” (≥50 = +++)”.

Take “344 (VLAFENPQV; listed as Homo sapiens) [compound 344]”: the “Peptide Exchange” value is listed as ““+++” (≥50 = +++)”. Under “345 (YLIEPDVELQRI; listed as Homo sapiens) [compound 345]” stands ““+++” (≥50 = +++)”; under “346 (VLVQVSPSL; listed as Homo sapiens) [compound 346]”, ““+++” (≥50 = +++)”.

Consider “347 (YLGPVSPSL; listed as Homo sapiens) [compound 347]”, for which the “Peptide Exchange” value is ““+++” (≥50 = +++)”.

As to “348 (ALAKPPVVSV; listed as Homo sapiens) [compound 348]”, the “Peptide Exchange” value is on record as ““+++” (≥50 = +++)”. Turning to “349 (ALATHILSL; listed as Homo sapiens) [compound 349]”, the “Peptide Exchange” value is ““+++” (≥50 = +++)”. Under “350 (ALEDRVWEL; listed as Homo sapiens) [compound 350]” stands ““+++” (≥50 = +++)”.

For “351 (ALSEKLARL; listed as Homo sapiens) [compound 351]”, the “Peptide Exchange” value was ““+++” (≥50 = +++)”. As for “352 (ALVFELHYV; listed as Homo sapiens) [compound 352]”, the “Peptide Exchange” value is ““+++” (≥50 = +++)”. Under “353 (ATPMPTPSV; listed as Homo sapiens) [compound 353]” stands ““++” (≥20% = ++)”; under “354 (FIMDDPAGNSYL; listed as Homo sapiens) [compound 354]”, ““+++” (≥50 = +++)”; under “355 (FIWPMLIHI; listed as Homo sapiens) [compound 355]”, ““+++” (≥50 = +++)”. The value for “356 (FLHDHQAEL; listed as Homo sapiens) [compound 356]” was ““++” (≥20% = ++)”; that for “357 (FLIQEIKTL; listed as Homo sapiens) [compound 357]” was ““+++” (≥50 = +++)”; that for “358 (FLTDYLNDL; listed as Homo sapiens) [compound 358]” was ““+++” (≥50 = +++)”.

Regarding “359 (FMQDPMEVFV; listed as Homo sapiens) [compound 359]”, the “Peptide Exchange” value is ““+++” (≥50 = +++)”.

Take “360 (HLIDTNKIQL; listed as Homo sapiens) [compound 360]”: the “Peptide Exchange” value is ““+++” (≥50 = +++)”.
